The target in experiment [1] is human OX40 on cells (human) (UniProt P43489). The experiment is described as follows: flow cytometry on human PBMCs activated with anti-CD3/CD28 beads, 50 nM antibody. A general note: In flow cytometry, cells or beads pass a laser one at a time.
Experiment [2] has the same target. The experiment is described as follows: cell-based or functional assay.

Sequence of human OX40 on cells (human) (P43489 29-277): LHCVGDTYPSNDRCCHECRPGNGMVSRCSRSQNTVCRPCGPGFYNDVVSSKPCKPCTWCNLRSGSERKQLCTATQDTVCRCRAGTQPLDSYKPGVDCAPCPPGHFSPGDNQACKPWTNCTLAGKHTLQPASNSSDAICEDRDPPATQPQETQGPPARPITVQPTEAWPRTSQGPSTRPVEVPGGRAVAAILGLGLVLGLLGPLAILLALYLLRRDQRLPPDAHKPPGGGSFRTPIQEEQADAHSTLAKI

With IgG1 (antibody), in experiment [1], the Binding percentage % was 23% and the MFI (ten thousand) stood at 7000.
With OX40L (ligand), the Luciferase IFM, Jurkat-hOX40-NFκB-2 cells in experiment [2] came out at 59000.

These data come from patent US20230139700A1.
